Source: patent US20240287501A1 (VIB VZW, published 2024)

T1: ALD6 (native, from EBY100 lysate) (Saccharomyces cerevisiae, UniProt P54115 2-500)
T1 construct: mature; Endogenous untagged protein; also called YPL061W
T1 sequence (looked up): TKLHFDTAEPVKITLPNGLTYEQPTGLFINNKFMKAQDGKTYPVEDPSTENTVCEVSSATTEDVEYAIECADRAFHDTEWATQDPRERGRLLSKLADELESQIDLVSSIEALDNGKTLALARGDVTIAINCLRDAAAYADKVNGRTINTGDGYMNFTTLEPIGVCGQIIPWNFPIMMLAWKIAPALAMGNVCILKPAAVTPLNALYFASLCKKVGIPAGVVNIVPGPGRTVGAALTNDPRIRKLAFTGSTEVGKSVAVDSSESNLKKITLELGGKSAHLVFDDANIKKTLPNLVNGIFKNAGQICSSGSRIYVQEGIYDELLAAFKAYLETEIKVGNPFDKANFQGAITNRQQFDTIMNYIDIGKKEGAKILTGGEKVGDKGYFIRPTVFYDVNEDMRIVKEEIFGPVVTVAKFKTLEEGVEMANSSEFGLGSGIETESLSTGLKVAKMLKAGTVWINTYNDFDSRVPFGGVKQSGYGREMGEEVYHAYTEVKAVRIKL

T2: GFP-tagged ALD6 (Saccharomyces cerevisiae, UniProt P54115 2-500)
T2 construct: Yeast GFP Fusion Collection strain; also called Yeast GFP fusion collection GFP(+)15, F1; not shown: GFP tag
T2 sequence (looked up): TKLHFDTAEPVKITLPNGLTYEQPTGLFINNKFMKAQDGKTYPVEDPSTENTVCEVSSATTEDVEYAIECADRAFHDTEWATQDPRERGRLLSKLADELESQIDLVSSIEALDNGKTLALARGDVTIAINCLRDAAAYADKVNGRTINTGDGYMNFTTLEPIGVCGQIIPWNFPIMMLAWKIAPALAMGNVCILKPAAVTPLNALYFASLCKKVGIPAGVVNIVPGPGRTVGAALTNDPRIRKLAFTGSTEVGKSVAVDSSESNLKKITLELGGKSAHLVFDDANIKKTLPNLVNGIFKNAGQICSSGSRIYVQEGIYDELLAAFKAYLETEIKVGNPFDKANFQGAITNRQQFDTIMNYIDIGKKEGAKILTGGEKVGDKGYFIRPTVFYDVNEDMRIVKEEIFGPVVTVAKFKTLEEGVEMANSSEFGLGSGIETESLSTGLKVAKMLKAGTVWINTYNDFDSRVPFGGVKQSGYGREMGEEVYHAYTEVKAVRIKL

T3: GFP-tagged PDC1 (Saccharomyces cerevisiae, UniProt P06169 2-563)
T3 construct: Yeast GFP Fusion Collection strain; also called Yeast GFP fusion collection GFP(+)12, F8; not shown: GFP tag
T3 sequence (looked up): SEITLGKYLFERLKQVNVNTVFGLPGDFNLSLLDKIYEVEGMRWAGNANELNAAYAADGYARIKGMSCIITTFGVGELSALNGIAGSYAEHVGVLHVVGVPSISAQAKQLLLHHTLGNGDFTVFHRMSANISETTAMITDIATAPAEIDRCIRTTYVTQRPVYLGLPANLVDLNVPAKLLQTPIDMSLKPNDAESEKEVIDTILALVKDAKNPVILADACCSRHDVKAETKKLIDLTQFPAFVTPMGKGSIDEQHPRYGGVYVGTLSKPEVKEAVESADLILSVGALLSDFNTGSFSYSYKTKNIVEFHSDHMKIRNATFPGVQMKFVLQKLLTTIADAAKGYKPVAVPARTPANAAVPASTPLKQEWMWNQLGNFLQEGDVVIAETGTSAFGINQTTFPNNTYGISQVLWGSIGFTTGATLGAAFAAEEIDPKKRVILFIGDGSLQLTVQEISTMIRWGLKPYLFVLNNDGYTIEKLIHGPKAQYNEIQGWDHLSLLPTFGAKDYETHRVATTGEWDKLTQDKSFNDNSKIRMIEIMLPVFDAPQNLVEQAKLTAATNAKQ

T4: PDC1 (native, from EBY100 lysate) (Saccharomyces cerevisiae, UniProt P06169 2-563)
T4 construct: mature; Endogenous untagged protein; also called YLR044C
T4 sequence (looked up): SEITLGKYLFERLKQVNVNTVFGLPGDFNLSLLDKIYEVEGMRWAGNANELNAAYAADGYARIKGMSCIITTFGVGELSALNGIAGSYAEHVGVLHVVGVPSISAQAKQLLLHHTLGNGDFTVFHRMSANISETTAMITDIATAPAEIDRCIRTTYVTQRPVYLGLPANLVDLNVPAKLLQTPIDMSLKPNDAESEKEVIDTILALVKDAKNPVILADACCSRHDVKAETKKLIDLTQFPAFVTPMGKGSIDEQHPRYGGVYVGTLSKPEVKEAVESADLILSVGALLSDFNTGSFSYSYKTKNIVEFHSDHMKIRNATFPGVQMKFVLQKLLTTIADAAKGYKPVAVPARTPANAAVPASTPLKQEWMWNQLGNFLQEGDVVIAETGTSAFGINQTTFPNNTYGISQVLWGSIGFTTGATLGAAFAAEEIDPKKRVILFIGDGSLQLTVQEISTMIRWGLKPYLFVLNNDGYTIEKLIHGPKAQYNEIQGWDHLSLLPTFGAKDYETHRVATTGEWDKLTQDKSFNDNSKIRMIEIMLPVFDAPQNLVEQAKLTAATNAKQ


Experiments:
[1] = biological target: T1, ALD6 (native, from EBY100 lysate); experiment: co-IP, Nb on NHS-agarose beads, EBY100 yeast lysate, SDS-PAGE
GFP-tagged ALD6 = biological target: T2, GFP-tagged ALD6; experiment: co-immunoprecipitation, Nb coupled to NHS-agarose beads, lysate of the yeast strain expressing the GFP-tagged target, Western blot anti-GFP
Procedure: One SIS1-specific Nanobody (44=Nb clone CA17444 corresponding to SEQ ID NO: 9), three ALD6-specific Nanobodies (53=CA17453-SEQ ID NO: 10, 54=CA17454-SEQ ID NO: 11, 60=CA17460-SEQ ID NO: 12), two BMH1-specific Nanobodies (58=CA17458-SEQ ID NO: 13, 59=CA17459-SEQ ID NO: 14) were characterized by co-immunoprecipitation assays. Each target-specific Nanobodies was covalently linked to NHS-agarose beads. The beads that were functionalized with these target-specific Nanobodies were incubated for an hour at 4° C. on a rotating device with either an EBY100 lysate or the lysate of the engineered Yeast strain expressing the target (Yeast GFP fusion collection reference for SIS1: GFP(+)22, E5, for ALD6: GFP(+)15, F1, for BMH1: GFP(+)27, D5) as a GFP-tagged protein. After washing, these beads were resuspended in SDS-PAGE loading dye and analyzed on SDS-PAGE (FIG. 8A). Separated proteins were transferred to a PVDF membrane and the Western blot (FIG. 8B) was developed with GFP-specific antibody to confirm the presence of GFP-tagged targets.

GFP-tagged PDC1 = biological target: T3, GFP-tagged PDC1; experiment: co-immunoprecipitation, Nb coupled to NHS-agarose beads, lysate of the yeast strain expressing the GFP-tagged target, SDS-PAGE
Procedure: (§1) Two PDC1-specific Nanobodies (51=Nb clone CA17451 corresponding to SEQ ID NO: 7, 52=CA17452-SEQ ID NO: 8) were characterized by co-immunoprecipitation assays. Each PDC1-specific Nanobodies was covalently linked to NHS-agarose beads. The beads that were functionalized with these PDC1-specific Nanobodies were incubated for an hour at 4° C. on a rotating device with either an EBY100 lysate or the lysate of the engineered Yeast strain expressing PDC1 (Yeast GFP fusion collection reference: GFP(+)12, F8) as a GFP-tagged protein. After washing, these beads were resuspended in SDS-PAGE loading dye and analyzed on SDS-PAGE (FIG. 5A). Separated proteins were transferred to a PVDF membrane and the Western blot (FIG. 5B) was developed with GFP-specific antibody to confirm the presence of GFP-tagged PDC1.

[2] = biological target: T4, PDC1 (native, from EBY100 lysate); experiment: co-immunoprecipitation, Nb coupled to NHS-agarose beads, EBY100 yeast lysate (native target), SDS-PAGE
Procedure: as §1

GFP-tagged SSA1 = biological target: T5, GFP-tagged SSA1 (Saccharomyces cerevisiae, UniProt P10591 2-642); experiment: co-immunoprecipitation, Nb coupled to NHS-agarose beads, lysate of the yeast strain expressing the GFP-tagged target, SDS-PAGE
T5 construct: Yeast GFP Fusion Collection strain; also called Yeast GFP fusion collection GFP(+)10, E4; not shown: GFP tag
T5 sequence (P10591 2-642): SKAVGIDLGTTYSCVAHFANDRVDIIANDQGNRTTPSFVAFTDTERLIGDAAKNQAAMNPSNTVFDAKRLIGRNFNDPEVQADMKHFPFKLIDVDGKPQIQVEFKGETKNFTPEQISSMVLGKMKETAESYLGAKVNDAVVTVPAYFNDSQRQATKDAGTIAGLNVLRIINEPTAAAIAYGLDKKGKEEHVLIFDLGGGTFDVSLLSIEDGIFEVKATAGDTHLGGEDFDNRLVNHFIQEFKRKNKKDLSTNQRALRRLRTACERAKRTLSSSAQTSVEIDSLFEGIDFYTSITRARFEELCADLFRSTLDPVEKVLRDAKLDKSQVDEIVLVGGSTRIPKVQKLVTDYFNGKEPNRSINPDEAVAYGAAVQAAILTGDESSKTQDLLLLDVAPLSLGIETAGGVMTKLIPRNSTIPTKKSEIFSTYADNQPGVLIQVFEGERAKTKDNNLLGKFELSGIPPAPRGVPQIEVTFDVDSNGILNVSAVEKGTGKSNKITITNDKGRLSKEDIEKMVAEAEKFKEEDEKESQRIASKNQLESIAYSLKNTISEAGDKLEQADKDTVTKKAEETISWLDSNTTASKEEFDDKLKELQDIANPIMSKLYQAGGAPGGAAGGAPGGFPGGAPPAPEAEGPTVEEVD
Procedure: Six SSA1-specific Nanobodies (60=Nb clone CA17560 corresponding to SEQ ID NO: 19, 61=CA17561-SEQ ID NO: 20, 62=CA17562-SEQ ID NO: 21, 63=CA17563-SEQ ID NO: 22, 64=CA17564-SEQ ID NO: 23, 65=CA17565-SEQ ID NO: 24) were characterized by co-immunoprecipitation assays. Each SSA1-specific Nanobodies was covalently linked to NHS-agarose beads. The beads that were functionalized with these SSA1-specific Nanobodies were incubated for an hour at 4° C. on a rotating device with either an EBY100 lysate or the lysate of the engineered Yeast strain expressing SSA1 (Yeast GFP fusion collection reference: GFP(+)10, E4) as a GFP-tagged protein. After washing, these beads were resuspended in SDS-PAGE loading dye and analyzed on SDS-PAGE (FIG. 6A). Separated proteins were transferred to a PVDF membrane and the Western blot (FIG. 6B) was developed with GFP-specific antibody to confirm the presence of GFP-tagged SSA1.

[3] = biological target: T6, SSA1 (native, from EBY100 lysate) (Saccharomyces cerevisiae, UniProt P10591 2-642); experiment: co-IP, Nb on NHS-agarose beads, EBY100 yeast lysate, SDS-PAGE
T6 construct: mature; Endogenous untagged protein; also called YAL005C
T6 sequence (P10591 2-642): as above

Row | Binder | binding result [1] | binding result (GFP-tagged ALD6) | also measured
1 | CA17460 (VHH, C-terminal 6xHis-EPEA tag is part of the entry) VHH: QVQLVESGGGLVQPGDSLRLSCAASGFTVSTNTMTWVRQAPGKGLEWVSTKYSTGGTTYANSVKGRFTISRDNAKNTLYLQMNNLKPEDTAVYYCGGADYRGQGTQVTVSS | binds | binds | 
2 | CA17452 (VHH, C-terminal 6xHis-EPEA tag is part of the entry) VHH: QVQLVESGGGLVQAGASLTLSCAASGRTFNTYSMHWFRQAPGKEREFVAATNWGGNSKFYADSVRGRFTISRDNTKNMVYLQMNSLKPEDTAVYYCAAHRTVVGKTPDYWGQGTQVTVSS |  |  | binding result (GFP-tagged PDC1): binds; binding result [2]: binds
3 | CA17561 (VHH, C-terminal 6xHis-EPEA tag is part of the entry) VHH: QVQLVESGGGLVQAGGSLRLSCAASTRTFSNYVMAWFRQAPGKEREFVGAINWSGGTEYYADSVKGRFTISRDNAKNTVYLQMNDLNPEDTANYYCAARRGTIARTALVKYLEYDYWGQGTQVTVSS |  |  | binding result (GFP-tagged SSA1): binds; binding result [3]: binds
4 | CA17454 (VHH, C-terminal 6xHis-EPEA tag is part of the entry) VHH: QVQLVESGGGLVQPGGSLRLSCAASGSIFSRNYIAWYRQAPGKQRELVARKTQSGATVYADSVKGRFTISTNNAKNTMYLQMNILKPEDTAVYYCNAGGLIGSWGQGTQVTVSS | binds | binds | 
5 | CA17453 (VHH, C-terminal 6xHis-EPEA tag is part of the entry) VHH: QVQLVESGGGVVQPGGSLRLSCAASGRIFIRSAWYRQAPGKQRALVASIFSGGTTNYADSVKGRFTISRDNAKNTVILEMNNLKPEDTAVYYCNVRVRSGTDYWGQGTQVTVSS | binds | binds | 
